Data set [1] concerns the molecule itself. As to the kind of experiment: native gel or EMSA; BN-PAGE of 5 μg of purified protein incubated with 1.5 μg of PI(4,5)P2 (micelles) for 0-30 min.
Data set [2] deals with the molecule itself. In words: cell-based or functional assay.
Data set [3] deals with the molecule itself. In words: atomic force microscopy (volume analysis); 100 pM CAPS dried onto freshly cleaved mica.
Data set [4] deals with the molecule itself. In words: native gel or EMSA; blue native (BN-PAGE, 5-14% or 6-14%) or clear native (CN-PAGE, 6%, 4 °C) gels of purified soluble protein without lipid; Coomassie or Western blot (CAPS or Myc antibody); 20 mM HEPES, 10 mM NaCl, 10 mM imidazole, 5% glycerol, pH 7.4 for CN-PAGE. Background: A gel shift assay detects complexes by their altered migration in electrophoresis.

B1: CAPS(ΔC2)-Myc-His (natural protein)
chain: not shown
notes: CAPS, Rattus norvegicus, NP_037351.1; amino acids 400-516 deleted from the CAPS ORF, residue 399 directly fused to residue 517; also called ΔC2-CAPS; source: HEK293-FT, transfected, purified as Myc-His fusion protein
Consider B1, for which the binding result in data set [1] is recorded as “binds”.

B2: CAPS-Myc-His (recombinant wild-type rat CAPS) (natural protein)
chain: not shown
notes: the CAPS ORF in pcDNA3.1 CAPS-Myc-His; the words 'full length' are used only for the antigen of the antibody; also called CAPS-1; CADPS; source: HEK293-FT, transfected (calcium phosphate), purified (nickel-nitrilotriacetic acid column)
With B2, the “Ca2+-dependent norepinephrine secretion from permeable PC12 cells: activity of bound CAPS-Myc-His (exclusively dimer) after wash, relative to added CAPS-Myc-His” value in data set [2] is around 50%. In data set [3], the stoichiometry N (in general, a count of units in the complex or per binding partner) was 2.

B3: CAPS(G476E)-Myc-His (natural protein)
chain: not shown
notes: CAPS, Rattus norvegicus, NP_037351.1, point mutant made on pcDNA3.1 CAPS-Myc-His; also called counterpart of unc-31(e714); source: HEK293-FT, transfected, purified as Myc-His fusion protein
With B3, in data set [4], the binding result was “binds”.

The values are drawn from publication PMC5076532, “The Vesicle Priming Factor CAPS Functions as a Homodimer via C2 Domain Interactions to Promote Regulated Vesicle Exocytosis*” (The Journal of Biological Chemistry, 2016).
